Test results as given in paper PMC9482650, “Quantitative fragmentomics allow affinity mapping of interactomes” (Nature Communications, 2022).

Key:
Assay in all cases: holdup assay
Parameters in all cases: key: below the threshold = too weak to quantify, mostly under pKd 3.1 to 4
[1] = molecular target: T1, APBA1_2, Q02410
T1 sequence (Q02410 742-832, limits assumed, looked up): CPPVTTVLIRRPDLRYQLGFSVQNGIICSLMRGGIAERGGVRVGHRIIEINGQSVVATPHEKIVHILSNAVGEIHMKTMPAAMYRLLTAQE

[2] = molecular target: T2, APBA2_1, Q99767
T2 sequence (Q99767 563-664, limits assumed, looked up): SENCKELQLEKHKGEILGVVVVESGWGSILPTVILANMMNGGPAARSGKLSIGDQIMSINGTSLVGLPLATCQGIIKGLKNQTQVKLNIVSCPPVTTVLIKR

[3] = molecular target: CASK, O14936
Sequence of CASK, O14936 (O14936 487-570): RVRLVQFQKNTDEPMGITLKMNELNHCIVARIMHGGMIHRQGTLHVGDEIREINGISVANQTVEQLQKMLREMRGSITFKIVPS

[4] = molecular target: DLG1_3, Q12959
Sequence of DLG1_3, Q12959 (Q12959 457-571): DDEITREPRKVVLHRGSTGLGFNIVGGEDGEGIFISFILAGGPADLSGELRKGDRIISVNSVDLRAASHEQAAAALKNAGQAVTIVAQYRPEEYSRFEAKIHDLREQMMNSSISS

[5] = molecular target: T3, DLG3_3, Q92796
T3 sequence (Q92796 374-475, limits assumed, looked up): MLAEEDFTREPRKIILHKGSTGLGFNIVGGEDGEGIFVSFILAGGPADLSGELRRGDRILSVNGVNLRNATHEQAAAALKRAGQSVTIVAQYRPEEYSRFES

[6] = molecular target: DLG4_3, P78352
Sequence of DLG4_3, P78352 (P78352 306-403): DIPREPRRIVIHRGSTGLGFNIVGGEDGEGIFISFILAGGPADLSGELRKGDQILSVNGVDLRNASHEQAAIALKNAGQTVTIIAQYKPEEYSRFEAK

[7] = molecular target: T4, DVL3, Q92997
T4 sequence (Q92997 244-331, limits assumed, looked up): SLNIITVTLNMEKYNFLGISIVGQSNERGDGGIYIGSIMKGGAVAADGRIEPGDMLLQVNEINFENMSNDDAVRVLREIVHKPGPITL

[8] = molecular target: T5, FRMPD1, Q5SYB0
T5 sequence (Q5SYB0 52-145, limits assumed, looked up): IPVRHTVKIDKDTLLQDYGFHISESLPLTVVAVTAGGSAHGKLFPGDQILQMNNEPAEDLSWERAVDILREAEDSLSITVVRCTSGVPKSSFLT

[9] = molecular target: FRMPD2_1, Q68DX3
Sequence of FRMPD2_1, Q68DX3 (Q68DX3 770-861): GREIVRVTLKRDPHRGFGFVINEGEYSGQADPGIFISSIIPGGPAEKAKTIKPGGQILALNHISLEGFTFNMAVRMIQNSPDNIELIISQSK

[10] = molecular target: FRMPD2_2, Q68DX3
Sequence of FRMPD2_2, Q68DX3 (Q68DX3 944-1038): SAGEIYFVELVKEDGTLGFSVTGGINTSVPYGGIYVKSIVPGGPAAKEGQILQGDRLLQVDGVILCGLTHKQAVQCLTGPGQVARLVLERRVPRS

[11] = molecular target: FRMPD2_3, Q68DX3
Sequence of FRMPD2_3, Q68DX3 (Q68DX3 1073-1166): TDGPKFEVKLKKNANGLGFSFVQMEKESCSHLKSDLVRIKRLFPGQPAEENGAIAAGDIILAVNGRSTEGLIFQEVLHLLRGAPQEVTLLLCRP

[12] = molecular target: GOPC, Q9HD26
[13] = molecular target: GORASP1, Q9BQQ3
Sequence of GORASP1, Q9BQQ3 (Q9BQQ3 1-208): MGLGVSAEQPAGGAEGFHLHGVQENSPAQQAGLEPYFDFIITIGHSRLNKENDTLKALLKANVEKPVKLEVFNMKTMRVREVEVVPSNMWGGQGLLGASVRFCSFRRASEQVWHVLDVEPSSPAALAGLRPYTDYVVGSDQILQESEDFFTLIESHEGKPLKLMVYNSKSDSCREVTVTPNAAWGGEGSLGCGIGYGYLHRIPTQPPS

[14] = molecular target: T6, GRIP1_7, Q9Y3R0
T6 sequence (Q9Y3R0 999-1096, limits assumed, looked up): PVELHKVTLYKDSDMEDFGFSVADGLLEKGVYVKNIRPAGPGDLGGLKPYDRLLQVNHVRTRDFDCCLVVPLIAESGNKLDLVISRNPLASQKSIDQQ

[15] = molecular target: Inadl_1, Q8NI35
Sequence of Inadl_1, Q8NI35 (Q8NI35 113-229): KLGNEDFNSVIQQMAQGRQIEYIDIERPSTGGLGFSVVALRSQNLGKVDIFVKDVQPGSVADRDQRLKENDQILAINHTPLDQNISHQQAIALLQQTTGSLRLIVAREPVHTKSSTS

[16] = molecular target: Inadl_5, Q8NI35
Sequence of Inadl_5, Q8NI35 (Q8NI35 673-780): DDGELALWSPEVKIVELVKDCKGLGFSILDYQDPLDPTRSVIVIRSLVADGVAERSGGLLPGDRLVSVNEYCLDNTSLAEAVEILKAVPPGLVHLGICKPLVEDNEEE

[17] = molecular target: LAP2, Q96RT1
Sequence of LAP2, Q96RT1 (Q96RT1 other isoform, or with tags, fused parts or gaps): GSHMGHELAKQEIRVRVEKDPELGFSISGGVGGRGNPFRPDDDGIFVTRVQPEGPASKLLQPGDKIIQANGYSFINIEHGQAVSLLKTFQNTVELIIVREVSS

[18] = molecular target: T7, LIN7C, Q9NUP9
T7 sequence (Q9NUP9 88-185, limits assumed, looked up): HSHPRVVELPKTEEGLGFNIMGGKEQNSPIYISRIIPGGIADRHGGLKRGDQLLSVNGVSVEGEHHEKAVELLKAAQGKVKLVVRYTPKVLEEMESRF

[19] = molecular target: LNX1_3, Q8TBB1
Sequence of LNX1_3, Q8TBB1 (Q8TBB1 500-596): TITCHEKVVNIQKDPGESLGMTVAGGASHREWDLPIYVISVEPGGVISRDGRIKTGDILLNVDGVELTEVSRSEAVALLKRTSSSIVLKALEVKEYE

[20] = molecular target: MAGI2_4, Q86UL8
Sequence of MAGI2_4, Q86UL8 (Q86UL8 772-865): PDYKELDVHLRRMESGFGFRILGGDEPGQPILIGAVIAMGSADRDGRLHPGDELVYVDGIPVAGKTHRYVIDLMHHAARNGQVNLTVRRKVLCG

[21] = molecular target: MAGI2_6, Q86UL8
Sequence of MAGI2_6, Q86UL8 (Q86UL8 1141-1229): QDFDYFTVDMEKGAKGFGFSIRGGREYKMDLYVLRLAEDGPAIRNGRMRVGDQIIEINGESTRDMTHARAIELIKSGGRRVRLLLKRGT

[22] = molecular target: T8, MPDZ_5, O75970
T8 sequence (O75970 695-796, limits assumed, looked up): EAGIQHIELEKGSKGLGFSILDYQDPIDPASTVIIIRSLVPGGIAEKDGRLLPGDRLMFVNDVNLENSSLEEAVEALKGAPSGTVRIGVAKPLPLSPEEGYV

[23] = molecular target: NOS1, P29475
Sequence of NOS1, P29475 (P29475 9-101): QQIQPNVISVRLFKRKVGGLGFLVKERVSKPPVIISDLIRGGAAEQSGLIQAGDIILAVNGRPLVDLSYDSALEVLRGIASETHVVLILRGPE

[24] = molecular target: T9, PDZD7_3, Q9H5P4; conditions: plain residues with an end cap or a label only (N-terminal biotin on a linker: ttds)
T9 sequence (Q9H5P4 857-944, limits assumed, looked up): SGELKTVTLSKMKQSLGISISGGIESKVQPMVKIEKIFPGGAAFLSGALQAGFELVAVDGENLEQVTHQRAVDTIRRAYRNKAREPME

[25] = molecular target: SCRIB_2, Q14160
Sequence of SCRIB_2, Q14160 (Q14160 857-960): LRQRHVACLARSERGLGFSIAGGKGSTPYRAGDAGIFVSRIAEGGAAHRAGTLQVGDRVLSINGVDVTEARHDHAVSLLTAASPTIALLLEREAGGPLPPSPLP

[26] = molecular target: T10, SHANK1, Q9Y566
T10 sequence (Q9Y566 658-767, limits assumed, looked up): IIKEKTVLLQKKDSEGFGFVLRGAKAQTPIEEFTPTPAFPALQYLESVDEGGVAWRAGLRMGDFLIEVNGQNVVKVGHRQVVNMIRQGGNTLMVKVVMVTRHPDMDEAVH

[27] = molecular target: T11, SNTB1, Q13884
T11 sequence (Q13884 107-205, limits assumed, looked up): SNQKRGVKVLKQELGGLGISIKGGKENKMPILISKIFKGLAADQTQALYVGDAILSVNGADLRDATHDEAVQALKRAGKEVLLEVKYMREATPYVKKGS

[28] = plain residues with an end cap or a label only (N-terminal biotin on a linker: ttds)
[29] = plain residues with an end cap or a label only (N-terminal biotin on a linker: ahx)

Measured: pKd

PRVKPQRSKV [PPP1R13L, Q8WUF5]
3.54: [1]; [28]
below the threshold: [2]; [28] | [3]; [28] | [4]; [28] | [5]; [28] | [6]; [28] | [7]; [28] | [8]; [28] | [9]; [28] | [10]; [28] | [11]; [28] | [13]; [28] | [14]; [28] | [16]; [28] | [17]; [28] | [18]; [28] | [19]; [28] | [20]; [28] | [21]; [28] | [22]; [28] | [23]; [28] | [25]; [28]
3.65: [27]; [28]
3.67: [24]
3.64: [26]; [28]
3.95: [12]; [28]
3.66: [15]; [28]

SKPTRRETEV [HPV35-E6, P27228]
5.2: [6]; [28]
4.77: [4]; [28]
3.69: [17]; [28]
below the threshold: [1]; [28] | [2]; [28] | [3]; [28] | [7]; [28] | [8]; [28] | [10]; [28] | [11]; [28] | [12]; [28] | [13]; [28] | [14]; [28] | [15]; [28] | [16]; [28] | [19]; [28] | [22]; [28] | [26]; [28]
4.7: [25]; [28]
3.76: [18]; [28]
4.68: [27]; [28]
3.74: [23]; [28]
4.34: [20]; [28]
5.18: [5]; [28]
4.3: [24]
3.49: [9]; [28] | [21]; [28]

QRQARSETLV [HPV59-E6, Q81964]
4.21: [6]; [28]
3.95: [10]; [28]
3.92: [12]; [28]
4.72: [24]
3.74: [21]; [28]
5.71: [20]; [28]
4.51: [5]; [28]
3.86: [27]; [28]
below the threshold: [1]; [28] | [2]; [28] | [3]; [28] | [7]; [28] | [8]; [28] | [9]; [28] | [11]; [28] | [13]; [28] | [14]; [28] | [15]; [28] | [17]; [28] | [19]; [28] | [26]; [28]
4.26: [23]; [28]
3.9: [16]; [28]
3.87: [18]; [28]
3.82: [4]; [28]
4.18: [25]; [28]
3.81: [22]; [28]

PSASCAVTAA [PDLIM4, P50479;P50479-2]
below the threshold: [1]; [29] | [2]; [29] | [3]; [29] | [4]; [29] | [5]; [29] | [6]; [29] | [7]; [29] | [8]; [29] | [9]; [29] | [10]; [29] | [11]; [29] | [12]; [29] | [13]; [29] | [14]; [29] | [15]; [29] | [16]; [29] | [17]; [29] | [18]; [29] | [19]; [29] | [20]; [29] | [21]; [29] | [22]; [29] | [23]; [29] | [25]; [29] | [26]; [29] | [27]; [29]
